Here are results for three molecules from paper PMC7881136, “Mechanism of karyopherin-β2 binding and nuclear import of ALS variants FUS(P525L) and FUS(R495X)” (Scientific Reports, 2021).

Holding throughout (conditions): both partners purified
The target in assay [1] is T1, Kapβ2 (untagged, GST removed) (human, UniProt Q92973-2 1-890).
T1 construct: Karyopherin β2 (Kapβ2, Transportin-1, TNPO1), human; used for ITC and turbidity assays; also called Karyopherin-β2; Transportin-1; source: E. coli BL21 (DE3), purified (GSH column, Tev cleavage, anion exchange, SEC Superdex200)
T1 sequence (looked up): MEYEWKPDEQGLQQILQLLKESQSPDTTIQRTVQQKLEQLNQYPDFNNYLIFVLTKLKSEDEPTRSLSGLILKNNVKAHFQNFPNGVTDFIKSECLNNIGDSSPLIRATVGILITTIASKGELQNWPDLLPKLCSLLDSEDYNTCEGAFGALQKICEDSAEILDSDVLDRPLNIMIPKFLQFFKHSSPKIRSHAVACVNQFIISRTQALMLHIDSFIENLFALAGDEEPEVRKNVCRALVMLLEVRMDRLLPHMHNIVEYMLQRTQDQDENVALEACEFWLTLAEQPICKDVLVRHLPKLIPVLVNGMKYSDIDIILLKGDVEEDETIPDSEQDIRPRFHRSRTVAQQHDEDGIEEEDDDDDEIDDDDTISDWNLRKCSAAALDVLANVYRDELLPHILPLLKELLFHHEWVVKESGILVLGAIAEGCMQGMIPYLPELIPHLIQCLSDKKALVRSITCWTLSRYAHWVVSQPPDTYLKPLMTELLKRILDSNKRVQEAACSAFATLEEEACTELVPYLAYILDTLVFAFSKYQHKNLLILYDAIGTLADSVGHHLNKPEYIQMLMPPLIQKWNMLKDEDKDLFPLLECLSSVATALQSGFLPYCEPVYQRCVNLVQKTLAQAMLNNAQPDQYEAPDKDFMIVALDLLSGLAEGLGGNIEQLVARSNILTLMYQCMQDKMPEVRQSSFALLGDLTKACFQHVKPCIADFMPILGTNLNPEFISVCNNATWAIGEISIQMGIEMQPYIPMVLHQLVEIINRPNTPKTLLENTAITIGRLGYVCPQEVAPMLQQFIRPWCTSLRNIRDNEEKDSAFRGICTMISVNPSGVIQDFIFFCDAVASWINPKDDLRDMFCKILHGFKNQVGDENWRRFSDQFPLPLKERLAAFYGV
As to the kind of experiment: ITC; reversed set-up: 10 μM MBP-FUS protein in the cell, 100 μM or 200 μM Kapβ2 in the syringe; 20 mM Tris–HCl, 150 mM NaCl, 10% glycerol, 2 mM BME; 20 °C; single class of binding sites; 'apparent' KD for FUS(1–370). In general terms: ITC needs no label: the signal is the heat of the interaction.

Assay [2] addresses T1, Kapβ2 (untagged, GST removed). As to the kind of experiment: ITC; quality control of the Kapβ2 preparations with MBP-hnRNP A1 PY-NLS; set-up not told.
The target of assay [3] is T2, FUS(P525L)^PY-NLS (475–526, P525L), MBP removed (UniProt P35637 475-526, P525L).
T2 construct: FUS residues 475–526 with the ALS mutation P525L; residues 507–526 modeled in the crystal structure; also called FUS(475–526, P525L); FUS PY-NLS(P525L); source: E. coli, lysed together with bacteria expressing GST-Kapβ2ΔLoop; complex purified (GSH sepharose, amylose, TEV, gel filtration); not shown: MBP, N-terminal, cleaved
T2 sequence (looked up): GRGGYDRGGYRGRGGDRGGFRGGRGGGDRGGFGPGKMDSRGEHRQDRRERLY
As to the kind of experiment: crystal structure; Kapβ2ΔLoop·FUS(P525L) PY-NLS complex, 2.7 Å, space group P2(1)2(1)2, molecular replacement; crystals from 1 M succinic acid pH 7.0, 1% PEG MME2000, 20 °C.

B1: MBP-FUS(R495X) (residues 1–494) (domain or fragment, UniProt P35637 1-494, looked up)
chain: MASNDYTQQATQSYGAYPTQPGQGYSQQSSQPYGQQSYSGYSQSTDTSGYGQSSYSSYGQSQNTGYGTQSTPQGYGSTGGYGSSQSSQSSYGQQSSYPGYGQQPAPSSTSGSYGSSSQSSSYGQPQSGSYSQQPSYGGQQQSYGQQQSYNPPQGYGQQNQYNSSSGGGGGGGGGGNYGQDQSSMSSGGGSGGGYGNQDQSGGGGSGGYGQQDRGGRGRGGSGGGGGGGGGGYNRSSGGYEPRGRGGGRGGRGGMGGSDRGGFNKFGGPRDQGSRHDSEQDNSDNNTIFVQGLGENVTIESVADYFKQIGIIKTNKKTGQPMINLYTDRETGKLKGEATVSFDDPPSAKAAIDWFDGKEFSGNPIKVSFATRRADFNRGGGNGRGGRGRGGPMGRGGYGGGGSGGGGRGGFPSGGGGGGGQQRAGDWKCPNPTCENMNFSWRNECNQCKAPKPDGPGGGPGGSHMGGNYGDDRRGGRGGYDRGGYRGRGGDRGGF
notes: source: E. coli BL21 (DE3), purified (amylose resin, SEC); not shown: MBP, N-terminal, kept
In the case of B1, the Kd in assay [1] worked out at 330 nM.

B2: MBP-hnRNP A1 PY-NLS (domain or fragment)
chain: GGSYNDFGNYNNQSSNFGPMKGGNFGGRSSGPYGGGGQYFAKPRNQGGY
modifications: Limits not printed: conventional hnRNP A1 PY-NLS (M9) construct 257-305 in the 320-aa A1-A isoform, shifted by +52 to the 372-aa canonical entry. MBP omitted.
On to B2, for which the Kd in assay [2] was about 50 nM.

B3: Kapβ2ΔLoop (residues 337–367 replaced with a GGSGGSG linker) (natural protein, human)
chain: MEYEWKPDEQGLQQILQLLKESQSPDTTIQRTVQQKLEQLNQYPDFNNYLIFVLTKLKSEDEPTRSLSGLILKNNVKAHFQNFPNGVTDFIKSECLNNIGDSSPLIRATVGILITTIASKGELQNWPDLLPKLCSLLDSEDYNTCEGAFGALQKICEDSAEILDSDVLDRPLNIMIPKFLQFFKHSSPKIRSHAVACVNQFIISRTQALMLHIDSFIENLFALAGDEEPEVRKNVCRALVMLLEVRMDRLLPHMHNIVEYMLQRTQDQDENVALEACEFWLTLAEQPICKDVLVRHLPKLIPVLVNGMKYSDIDIILLKGDVEEDETIPDSEQDIRGGSGGSGDTISDWNLRKCSAAALDVLANVYRDELLPHILPLLKELLFHHEWVVKESGILVLGAIAEGCMQGMIPYLPELIPHLIQCLSDKKALVRSITCWTLSRYAHWVVSQPPDTYLKPLMTELLKRILDSNKRVQEAACSAFATLEEEACTELVPYLAYILDTLVFAFSKYQHKNLLILYDAIGTLADSVGHHLNKPEYIQMLMPPLIQKWNMLKDEDKDLFPLLECLSSVATALQSGFLPYCEPVYQRCVNLVQKTLAQAMLNNAQPDQYEAPDKDFMIVALDLLSGLAEGLGGNIEQLVARSNILTLMYQCMQDKMPEVRQSSFALLGDLTKACFQHVKPCIADFMPILGTNLNPEFISVCNNATWAIGEISIQMGIEMQPYIPMVLHQLVEIINRPNTPKTLLENTAITIGRLGYVCPQEVAPMLQQFIRPWCTSLRNIRDNEEKDSAFRGICTMISVNPSGVIQDFIFFCDAVASWINPKDDLRDMFCKILHGFKNQVGDENWRRFSDQFPLPLKERLAAFYGV
notes: linker that replaces residues 337–367; crystallisation construct; also called GST-Kapβ2ΔLoop; source: E. coli, lysed together with bacteria expressing MBP-FUS(475–526, P525L); complex purified (GSH sepharose, amylose, TEV, gel filtration)
Take B3: the binding result in assay [3] is given as “binds”.
